Experimental data: the supplement of paper PMC9732359
± gives the uncertainty stated by the source.

Assay: protein stability index of a GFP-peptide fusion (yeast GPS) (PSI 1-4); higher = more stable; sorted into four equal gates, so the index is relative within each strain
Procedure, shortened: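 Each library plasmid carries Cherry plus GFP with a tiled 17-residue yeast protein peptide fused downstream, and the pooled library was carried in yeast. Mid-log cultures in leucine-free medium were sorted into four equal gates by GFP/Cherry ratio. Reads from Illumina sequencing of PCR-amplified plasmids from each gate were assigned to strains by barcodes. Per peptide, the protein stability index was computed as the summed products of gate read frequency and gate number.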

Sequence	protein stability index (doa10∆)	protein stability index (pdr5∆)	protein stability index (san1∆)	protein stability index (ubr1∆)
CVNLSLFDARFERKNPH [SRB8]	3.2 ± 0.089	3.16 ± 0.061	3.34 ± 0.083	3.17 ± 0.053
CVVLGCERRSTLKLQDT [PRE6]	1.78 ± 0.074	1.66 ± 0.073	1.91 ± 0.13	1.28 ± 0.062
CWAVRADVHFLDCDGGF [RRP45]	2.31 ± 0.2	2.65 ± 0.14	2.9 ± 0.085	2.72 ± 0.064
CWLSSVDVNTQKSFEQL [RPN11]	2.69 ± 0.095	1.28 ± 0.19	1.4 ± 0.29	1.35 ± 0.065
CYLRWQHLRNEHGMNAP [SNF2]	3.15 ± 0.072	3.33 ± 0.1	3.4 ± 0.087	2.9 ± 0.066
DAENEWNVEKFKKDFEV [RPC40]	1.39 ± 0.12	1.7 ± 0.21	1.85 ± 0.16	1.82 ± 0.11
DANLNDLPETGFFENIE [IRR1]	3.13 ± 0.2	3.24 ± 0.13	3.35 ± 0.1	3.27 ± 0.12
DCIIRLPVKWETTTQFK [FAS1]	1.74 ± 0.083	2.03 ± 0.074	1.94 ± 0.091	2.43 ± 0.11
DDDERVEYNLFTNRSTM [BRN1]	2.97 ± 0.12	3.2 ± 0.12	3.11 ± 0.07	3.1 ± 0.068
DDDQIESLKKSPIFEVL [ARP9]	3.16 ± 0.064	3.15 ± 0.046	3.06 ± 0.033	3.2 ± 0.04
DDEKNDKQARKQRTKKE [SNF2]	3.35 ± 0.3	3.53 ± 0.11	3.06 ± 0.088	3.18 ± 0.1
DDESEQISLNRLIDSMK [RRI1]	3.03 ± 0.16	3.11 ± 0.28		3.15 ± 0.14
DDFMHSETREKELESID [RPB4]			2.74 ± 0.12	3.2 ± 0.19
DDHNGEVWSVSWNLTGT [YGL100W/SEH1]	2.73 ± 0.069	3.04 ± 0.073	2.64 ± 0.096	2.73 ± 0.085
DDINKAKAVWENIIIVG [ARP9]	1.58 ± 0.05	2.17 ± 0.082	1.67 ± 0.092	2.03 ± 0.073
DDISRQVARTNLDGTKA [ROX3]	3.12 ± 0.096	2.88 ± 0.091	3.09 ± 0.087	3.11 ± 0.071
DDLALPYQHPPNIFPNL [ITC1]	3.37 ± 0.097	3.43 ± 0.12	3.43 ± 0.074	3.21 ± 0.046
DDSDNVMSSDDENAPVA [PRE10]	3.12 ± 0.087	3.42 ± 0.11	3.49 ± 0.11	3.11 ± 0.14
DDSSSDNDSLTDLESLS [SIR4]	3.15 ± 0.058	3.28 ± 0.043	3.09 ± 0.044	2.95 ± 0.042
DDVRDFVIRREVTKGEK [RPS6A]	3.37 ± 0.14	3.4 ± 0.094	3.08 ± 0.14	3.62 ± 0.18
DDYKDLTCSLYELYINK [IRR1]	2.74 ± 0.084	2.75 ± 0.12	3.16 ± 0.056	2.94 ± 0.079
DEADKMIDLGFEDQVTN [PRP28]	3.16 ± 0.098	3.34 ± 0.11	3.16 ± 0.11	3.1 ± 0.061
DEAEGRFEVINNETEQL [SMC1]	2.07 ± 0.072	2.56 ± 0.076	3.04 ± 0.14	2.82 ± 0.1
DEDEDNDLDEDDIYDIS [RPN4]		3.46 ± 0.2	3.56 ± 0.11	3.33 ± 0.15
DEDKNFPRSRSRSRSSI [ESC2]	3.13 ± 0.15	3.25 ± 0.14	3.12 ± 0.14	3.27 ± 0.07
DEDWSVRIDKALELDDT [ECM29]	2.76 ± 0.18	3.38 ± 0.17		
DEEAAGASTVMKTKTIN [PRP8]	3.34 ± 0.089	3.12 ± 0.071	3.28 ± 0.063	3.19 ± 0.061

Sequence	protein stability index (doa10∆)	protein stability index (pdr5∆)	protein stability index (san1∆)	protein stability index (ubr1∆)
DEEETAEGQTNSISDFL [RPN1]	2.84 ± 0.14	3.13 ± 0.094	2.94 ± 0.078	3.04 ± 0.069
DEKGNEIKVGKQRFQGC [ARP9]	2.88 ± 0.18	3.1 ± 0.17	3.06 ± 0.1	3.41 ± 0.1
DENAPVATNANATTDQE [PRE10]	3.09 ± 0.23	3.33 ± 0.15	3.4 ± 0.17	
DENGDKNDNGGKMNNEV [SWI3]	3.15 ± 0.084	3.41 ± 0.077	3.12 ± 0.044	3.33 ± 0.097
DENKASATSKPAFSFGA [YJL041W/NSP1]	2.96 ± 0.063	2.98 ± 0.055	3 ± 0.05	2.97 ± 0.055
DENPDLLGYTGIPTDKG [PRE8]	1.99 ± 0.05	2.48 ± 0.063	2.71 ± 0.05	2.28 ± 0.044
DENTSGKISKPRFLNKQ [PRP28]		3.4 ± 0.23		3.16 ± 0.15
DERSQGEKNFTSAHLKL [SMC4]	3.17 ± 0.16	3.4 ± 0.13	3.14 ± 0.076	3.36 ± 0.11
DERTKEFEKKLQETLNK [YIL149C/MLP2]			2.88 ± 0.12	
DEVNDRSDISDSEGGLF [PCI8]	3.33 ± 0.28	3.08 ± 0.16	3.46 ± 0.072	3.06 ± 0.12
DFELAVGKVMNKNQETA [RPT6]	2.37 ± 0.21			
DFELEISWCSLSETNGL [PRE10]	2.92 ± 0.076	2.93 ± 0.094	2.84 ± 0.083	2.84 ± 0.069
DFKAKYCDSMGRPQRKM [RPB5]	3.44 ± 0.24	3.18 ± 0.15	3.22 ± 0.17	3.32 ± 0.1
DFNQAFEGTDDNEEASV [BRN1]	3.09 ± 0.14	3.17 ± 0.13	3.39 ± 0.15	3.53 ± 0.12
DFQPTELFDILSTSEDV [IRR1]	3.04 ± 0.11	2.42 ± 0.1	2.82 ± 0.074	3.08 ± 0.081
DGGKTLRACAANVDQIS [YMR129W/POM152]	2.15 ± 0.13	2.94 ± 0.11	2.94 ± 0.13	2.37 ± 0.11
DGLGNVVDFTSLPEELK [YMR129W/POM152]	3.4 ± 0.096	3.47 ± 0.1	3.3 ± 0.046	3.42 ± 0.095
DGLIAPGVRVSGEDVII [RPB2]	3.05 ± 0.12	2.69 ± 0.085	3.29 ± 0.16	2.67 ± 0.095
DGNNANYIYAGYENGML [RPN14]	2.73 ± 0.1	2.75 ± 0.094	2.79 ± 0.083	2.96 ± 0.069
DGSKMLKRADYTAVDTA [RPN14]	3.58 ± 0.12	3.32 ± 0.11	3.53 ± 0.036	3.26 ± 0.079
DGTEYVLSSVREPDFWV [MED6]	3.49 ± 0.13			2.67 ± 0.12
DGTSTEKTFLHLPCTIE [RPN8]	2.7 ± 0.1	1.78 ± 0.055	2.1 ± 0.065	1.41 ± 0.044
DGWVKLTYKSELSKSRA [YMR153W/NUP53]	1.85 ± 0.062	1.88 ± 0.04	1.95 ± 0.083	1.84 ± 0.032
DHAIVTSPTMPDYYVSI [RPT2]	2.62 ± 0.11	2.67 ± 0.17	2.58 ± 0.063	2.86 ± 0.12
DHFLSMCQNPMQKPVPF [FAS1]	2.93 ± 0.18	3.01 ± 0.14		2.42 ± 0.081
DHGDGILLIDSEIARTY [RPN9]	2.73 ± 0.22	3.03 ± 0.3	3.29 ± 0.17	3.17 ± 0.24
